The target in assay [1] is T1, ASH1L PHD finger (Mus musculus, UniProt Q99MY8).
T1 construct: The mASH1L PHD domain (residue 2573–2624); MBP (cleaved yes); made in house; host or cells: Escherichia coli BL21 (DE3)
Kind of assay: ITC, ASH1L PHD finger with H3 peptides. The note with it: 1×PBS, 100-μM ZnCl2, pH 7.2. The assay is classed as binding, mASH1L.
Protocol: The bacteria were grown in Luria Broth (LB) media, supplemented with 100-μM ZnCl2 (all PHD constructs). All PHD domains were expressed in Escherichia coli BL21 (DE3) cells and induced overnight with 0.5-mM isopropyl-β-D-1-thiogalactopyranoside (IPTG) at 22°C. In addition, the cells were harvested by centrifugation at 4,000 g. The harvested cells with MBP-tagged PHD were resuspended in buffer containing 25-mM Tris, pH 7.2, 1-M NaCl, 20-mM β-mercaptoethanol, 100-μM ZnCl2, and the Complete EDTA-free Protease Inhibitor (Roche, Mannheim, Germany). Following lysis in a microfluidizer (MFIC), cell debris was removed by centrifugation at 12,000 g for 1 h and the supernatant was loaded on a 5-ml MBPTrap HP column (GE Healthcare). The binding protein was eluted with buffer containing 25-mM Tris, pH 7.2, 500-mM NaCl, 20-mM β-mercaptoethanol, 20-mM maltose, and 100-μM ZnCl2. After TEV cleavage, the PHD domain was supplemented with 20-mM DTT and further purified using a Superdex 75 column (GE Healthcare, Uppsala, Sweden) in a final buffer containing 1×PBS, pH 7.2, 100- μM ZnCl2. […] The PHD protein was concentrated with a filter tube (Millipore, Co. Cork, Ireland) and measured by UV absorbance at 280 nm.
ITC assays were carried out on the MicroCal iTC200 System (Malvern) at 25°C while stirring at 750 rpm in the ITC buffer of pH 7.2, consisting of 1×PBS, 100-μM ZnCl2. […] The PHD or tandem Bromo-PHD protein sample of 100 µM was placed in the cell and titrated with 3 mM of a different peptide solution in the ITC buffer using a set of 31 injections of 1.2 μl, following a single initial injection of 0.2 μl. In the ITC measurements of PHD mutant samples, the H3 (1–15) peptides were diluted to the final concentrations of 1.5 mM, titrated with a single initial injection of 0.4 μl and followed with a set of 19 injections of 2 μl. Cumulative enthalpy exchange plots were derived from the raw thermal changes, using one set of a site-fitting model.

Assay [2] deals with T1, ASH1L PHD finger. As to the kind of experiment: 1H,15N HSQC chemical shift perturbation. The assay is classed as binding, mASH1L. The note with it: protein-to-peptide molar ratio 1:5; 298 K, 800 MHz, 1×PBS, pH 7.2, 100-μM ZnCl2. The text has this: The mASH1L PHD domain (residue 2573–2624) was subcloned into a modified pMAL-c5X expression vector (New England Biolabs, Ipswich, MA, US), which contains an MBP tag and a TEV cleavage site. The site-directed mutagenesis of D2573A, I2575A, D2584E, E2585A, M2588A, Q2590E, and W2597A in the PHD domain was generated using the PfuTurbo DNA polymerase (Agilent Technologies) and Dpn I restriction enzyme (New England Biolabs). After the MBP tag was cut by TEV, these proteins were used in ITC and NMR experiments. The His-tagged PHD domain was subcloned into a pGEX-4T1 expression vector. The base vector has a GST tag and was engineered to include a TEV cleavage site before a 5′ 6×His sequence. […]
The bacteria were grown in Luria Broth (LB) media, supplemented with 100-μM ZnCl2 (all PHD constructs). […] The size and purity of the purified protein were monitored by SDS-PAGE. The PHD protein was concentrated with a filter tube (Millipore, Co. Cork, Ireland) and measured by UV absorbance at 280 nm.
The ^1H,^15N HSQC spectra of the ^15N-labeled PHD finger were collected at 298 K on a Bruker 800-MHz NMR spectrometer equipped with the z-gradient triple-resonance cryoprobe. The binding was analyzed through monitoring chemical shift perturbations observed in the two-dimensional ^1H,^15N HSQC spectra of PHD finger upon the addition of H3 (aa 1-15) peptides (H3K4me, H3K4me2, H3K4me3). […]

Assay [3] has as its target mASH1L PHD domain (residue 2573–2624) E2585A (mouse, UniProt Q99MY8 2573-2624, E2585A). Kind of assay: ITC.
For assay [4], the target named is mASH1L PHD domain (residue 2573–2624) W2597A (mouse, UniProt Q99MY8 2573-2624, W2597A). Kind of assay: ITC. In general terms: Isothermal titration calorimetry measures the heat released or taken up as one component is titrated into another.
The target in assay [5] is mASH1L PHD domain (residue 2573–2624) Q2590E (mouse, UniProt Q99MY8 2573-2624, Q2590E). Kind of assay: ITC.
Assay [6] has as its target mASH1L PHD domain (residue 2573–2624) D2573A (mouse, UniProt Q99MY8 2573-2624, D2573A). As to the kind of experiment: ITC.
The target of assay [7] is mASH1L PHD domain (residue 2573–2624) M2588A (mouse, UniProt Q99MY8 2573-2624, M2588A). Kind of assay: ITC.
The target in assay [8] is mASH1L PHD domain (residue 2573–2624) I2575A (mouse, UniProt Q99MY8 2573-2624, I2575A). Kind of assay: ITC.
The target in assay [9] is T2, mASH1L PHD domain (residue 2573–2624) (mouse, UniProt Q99MY8 2573-2624).
T2 chain: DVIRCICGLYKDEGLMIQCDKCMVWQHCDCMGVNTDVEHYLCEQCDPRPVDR
Kind of assay: ITC.

Assay [10] has as its target T3, mASH1L PHD domain (residue 2573–2624) D2584E (mouse, UniProt Q99MY8 2573-2624, D2584E).
T3 construct: also called Asp2584 to Glu; source: E. coli BL21 (DE3), purified (MBPTrap, TEV cleavage, Superdex 75)
T3 sequence (looked up): T2 chain with D12E
Kind of assay: ITC; PHD mutants in the cell; H3 (1–15) peptides at 1.5 mM, 19 injections of 2 μl; 25°C, 1×PBS pH 7.2, 100 μM ZnCl2; one set of sites model. The conditions noted are these: both partners purified.

The target in assay [11] is T4, mASH1L PHD domain (residue 2573–2624) Q2590E (mouse, UniProt Q99MY8 2573-2624, Q2590E).
T4 construct: also called Gln2590 to glutamate; source: E. coli BL21 (DE3), purified (MBPTrap, TEV cleavage, Superdex 75)
T4 sequence (looked up): T2 chain with Q18E
The assay is described as above. The note with it: both partners purified.

Assay [12] deals with mASH1L PHD domain (residue 2573–2624) (mouse) (UniProt Q99MY8). As to the kind of experiment: NMR titration; 1H,15N HSQC; 100 μM PHD domain titrated with 25 to 2,000 μM peptide; 1×PBS pH 7.2, 100 μM ZnCl2, 298 K; single-site binding model.
For assay [13] the target is unchanged. Kind of assay: ITC; MicroCal iTC200, 25°C, 1×PBS pH 7.2, 100 μM ZnCl2; 100 µM PHD or tandem Bromo-PHD in the cell, titrated with 3 mM peptide (31 injections of 1.2 μl); one set of sites model.
The target of assay [14] is T5, His-tagged Bromo-PHD tandem domain (residue 2425–2627) of mASH1L (mouse, UniProt Q99MY8 2425-2627).
T5 construct: ASH1L (mASH1L), bromodomain and PHD finger in tandem, residues 2425-2627; pNIC-Bsa4 vector; no cleavage of the His tag is described; also called tandem Bromo-PHD protein; source: E. coli BL21 (DE3), purified (HiTrap IMAC FF, Superdex 75)
Described as above. The conditions noted are these: both partners purified.

Assay [15] concerns the target T6, mASH1L PHD domain (residue 2573–2624) (mouse, UniProt Q99MY8 2573-2624).
T6 construct: 15N- or 13C-labelled for the NMR experiments; also called ASH1L PHD finger; source: E. coli BL21 (DE3), purified (MBPTrap, TEV cleavage, Superdex 75)
Described as above. The note with it: both partners purified.

Changes are numbered by the printed parent chain. Primed or numbered codes have the meaning given here. Where no end group is shown, it is not given here. [ ]: non-standard residue; d: D form. Me3″ = trimethylation (trimethyl-lysine); Me2 = dimethylation (dimethyl-lysine); Lys(Me2) = CN(C)CCCC[C@H](N)C(=O)O A value given as a limit tells only on which side of the number the result lay.

Turning to `C[C@H](NC(=O)[C@@H](NC(=O)[C@H](CCC(N)=O)NC(=O)[C@H](CCCCN)NC(=O)[C@@H](NC(=O)[C@@H](N)CCCNC(=N)N)[C@@H](C)O)[C@@H](C)O)C(=O)N[C@@H](CCCNC(=N)N)C(=O)N[C@@H](CCCCN(C)C)C(=O)N[C@@H](CO)C(=O)N[C@H](C(=O)NCC(=O)NCC(=O)N[C@@H](CCCCN)C(=O)N[C@@H](C)C(=O)N1CCC[C@H]1C(=O)O)[C@@H](C)O` [H3K9me2], the “binding by ITC, in words” value on ASH1L PHD finger [1] (25°C) is recorded as “weak binding affinity”. The Kd (usually a measure of binding affinity in units of concentration) at ASH1L PHD finger [1] (MicroCal iTC200, 25°C, 100 µM protein titrated with 3 mM peptide, H3 (1–15) peptides, H3 (2–16) K9me2, H3 (29–43) K36me2) is greater than 500 µM. The “HSQC chemical shift perturbation” value at ASH1L PHD finger [2] is recorded as “binds with methylated H3K4 peptides but not H3K4me0, H3K9me2, or H3K36me2 peptides”.

B1: histone H3 (1–15) peptide, trimethylated on lysine 4 (peptide, UniProt P68431 2-16, looked up)
peptide: ARTK(Me3″)QTARKSTGGKA
notes: histone H3, residues 1-15; also called H3K4me3; source: synthetic peptide (MIMOYOPES, Wuxi, China)
In the case of B1, the Kd is 49 µM in assay [3]; greater than 200 µM in [4]; 33 µM in assay [5]; 86 µM in assay [6]; greater than 200 µM in assay [7]; 103 µM in [8]. For the same molecule, the Kd is 33 µM in assay [9]; roughly 38 µM in assay [10]; 106 µM in assay [12]; 64 µM in [13]; roughly 48 µM in [14]. In addition, in [11], the binding result is recorded as “binds”.

B2: histone H3 (2–16) peptide with dimethylation on lysine 9 (peptide, UniProt P68431 3-17, looked up)
peptide: RTKQTARK(Me2)STGGKAP
notes: histone H3, residues 2-16; also called H3K9me2; source: synthetic peptide (MIMOYOPES, Wuxi, China)
B2 returned a Kd in assay [15] greater than 500 µM.

The molecule APATGGVK(Me2)KPHRYRP [histone H3 (29–43) peptide with dimethylation on lysine 36] gave a Kd in assay [15] greater than 500 µM.

B3: histone H3 (1–15) peptide, dimethylated on lysine 4 (peptide)
peptide: ART[Lys(Me2)]QTARKSTGGKA
notes: also called H3K4me2; H3K4me2 peptide (1–15); source: synthetic peptide (MIMOYOPES, Wuxi, China)
For B3, the Kd in [3] is 174 µM; in assay [4], greater than 200 µM; in assay [5], 35 µM; in assay [6], 71 µM; in assay [7], greater than 200 µM; in [8], greater than 200 µM. Also, the Kd in assay [10] is roughly 26 µM; in [12] it was 238 µM; in assay [13] it was 39 µM; in assay [14] it was roughly 29 µM. Besides, the binding result in [11] is on record as “binds”.

B4: histone H3 (1–15) peptide, monomethylated on lysine 4 (peptide, UniProt P68431 2-16, looked up)
peptide: ARTK(Me)QTARKSTGGKA
notes: histone H3, residues 1-15; also called H3K4me1; H3K4me; source: synthetic peptide (MIMOYOPES, Wuxi, China)
Consider B4, for which the Kd in [3] was 140 µM; in assay [4], greater than 200 µM; in [5], 31 µM; in assay [6], 188 µM; in [7] it was greater than 200 µM; in assay [9], 41 µM. The dissociation constant Kd in [10] was roughly 54 µM; in assay [12], 181 µM; in assay [13], 75 µM; in [14] it was roughly 64 µM. In addition, the binding result in assay [11] is recorded as “binds”.

B5: histone H3 (1–15) peptide, unmethylated on lysine 4 (peptide, UniProt P68431 2-16, looked up)
peptide: ARTKQTARKSTGGKA
notes: histone H3, residues 1-15; also called H3K4; H3K4me0; source: synthetic peptide (MIMOYOPES, Wuxi, China)
Turning to B5, the equilibrium dissociation constant (Kd) was greater than 300 µM in assay [13] and greater than 500 µM in [14].
